Test results published in article PMC10128029.

Key:
Test in all cases: EMSA
[1] = system: TilS A244T (Burkholderia cenocepacia HI2424); conditions: unmodified in vitro transcript; EMSA: 3.5 nM 32P-tRNA, 220 nM-39.0 µM TilS, 100 mM Tris-HCl pH 7.8, 5 mM DTT, 10 mM MgCl2, 10 mM KCl, 10% glycerol, 37 C, 30 min; native 10% PAGE
[2] = system: TilS N274Y (Burkholderia cenocepacia HI2424); conditions: unmodified in vitro transcript; EMSA: 3.5 nM 32P-tRNA, 220 nM-39.0 µM TilS, 100 mM Tris-HCl pH 7.8, 5 mM DTT, 10 mM MgCl2, 10 mM KCl, 10% glycerol, 37 C, 30 min; native 10% PAGE
[3] = system: TilS N445K (Burkholderia cenocepacia HI2424); conditions: unmodified in vitro transcript; EMSA: 3.5 nM 32P-tRNA, 220 nM-39.0 µM TilS, 100 mM Tris-HCl pH 7.8, 5 mM DTT, 10 mM MgCl2, 10 mM KCl, 10% glycerol, 37 C, 30 min; native 10% PAGE
[4] = system: TilS P421L (Burkholderia cenocepacia HI2424); conditions: unmodified in vitro transcript; EMSA: 3.5 nM 32P-tRNA, 220 nM-39.0 µM TilS, 100 mM Tris-HCl pH 7.8, 5 mM DTT, 10 mM MgCl2, 10 mM KCl, 10% glycerol, 37 C, 30 min; native 10% PAGE
[5] = system: TilS WT (Burkholderia cenocepacia HI2424); conditions: 10 mM Mg2+; unmodified in vitro transcript; EMSA: 3.5 nM 32P-tRNA, 220 nM-39.0 µM TilS, 100 mM Tris-HCl pH 7.8, 5 mM DTT, 10 mM MgCl2, 10 mM KCl, 10% glycerol, 37 C, 30 min; native 10% PAGE

tRNAIle2 (CAU)
Kd [1]: 4.6 µM | Kd [2]: 3.3 µM | Kd [3]: 3.1 µM | Kd [4]: 4.5 µM | Kd [5]: 2600 nM
